Measured values reported in patent US6852319 (Scripps Research, dated 2005).

T1: purified 185 kD streptococcal antigen (SA) I/II cell surface adhesion molecule (Streptococcus mutans, UniProt P23504 39-1532)
T1 construct: also called purified SA; streptococcal antigen I/II
T1 sequence (looked up): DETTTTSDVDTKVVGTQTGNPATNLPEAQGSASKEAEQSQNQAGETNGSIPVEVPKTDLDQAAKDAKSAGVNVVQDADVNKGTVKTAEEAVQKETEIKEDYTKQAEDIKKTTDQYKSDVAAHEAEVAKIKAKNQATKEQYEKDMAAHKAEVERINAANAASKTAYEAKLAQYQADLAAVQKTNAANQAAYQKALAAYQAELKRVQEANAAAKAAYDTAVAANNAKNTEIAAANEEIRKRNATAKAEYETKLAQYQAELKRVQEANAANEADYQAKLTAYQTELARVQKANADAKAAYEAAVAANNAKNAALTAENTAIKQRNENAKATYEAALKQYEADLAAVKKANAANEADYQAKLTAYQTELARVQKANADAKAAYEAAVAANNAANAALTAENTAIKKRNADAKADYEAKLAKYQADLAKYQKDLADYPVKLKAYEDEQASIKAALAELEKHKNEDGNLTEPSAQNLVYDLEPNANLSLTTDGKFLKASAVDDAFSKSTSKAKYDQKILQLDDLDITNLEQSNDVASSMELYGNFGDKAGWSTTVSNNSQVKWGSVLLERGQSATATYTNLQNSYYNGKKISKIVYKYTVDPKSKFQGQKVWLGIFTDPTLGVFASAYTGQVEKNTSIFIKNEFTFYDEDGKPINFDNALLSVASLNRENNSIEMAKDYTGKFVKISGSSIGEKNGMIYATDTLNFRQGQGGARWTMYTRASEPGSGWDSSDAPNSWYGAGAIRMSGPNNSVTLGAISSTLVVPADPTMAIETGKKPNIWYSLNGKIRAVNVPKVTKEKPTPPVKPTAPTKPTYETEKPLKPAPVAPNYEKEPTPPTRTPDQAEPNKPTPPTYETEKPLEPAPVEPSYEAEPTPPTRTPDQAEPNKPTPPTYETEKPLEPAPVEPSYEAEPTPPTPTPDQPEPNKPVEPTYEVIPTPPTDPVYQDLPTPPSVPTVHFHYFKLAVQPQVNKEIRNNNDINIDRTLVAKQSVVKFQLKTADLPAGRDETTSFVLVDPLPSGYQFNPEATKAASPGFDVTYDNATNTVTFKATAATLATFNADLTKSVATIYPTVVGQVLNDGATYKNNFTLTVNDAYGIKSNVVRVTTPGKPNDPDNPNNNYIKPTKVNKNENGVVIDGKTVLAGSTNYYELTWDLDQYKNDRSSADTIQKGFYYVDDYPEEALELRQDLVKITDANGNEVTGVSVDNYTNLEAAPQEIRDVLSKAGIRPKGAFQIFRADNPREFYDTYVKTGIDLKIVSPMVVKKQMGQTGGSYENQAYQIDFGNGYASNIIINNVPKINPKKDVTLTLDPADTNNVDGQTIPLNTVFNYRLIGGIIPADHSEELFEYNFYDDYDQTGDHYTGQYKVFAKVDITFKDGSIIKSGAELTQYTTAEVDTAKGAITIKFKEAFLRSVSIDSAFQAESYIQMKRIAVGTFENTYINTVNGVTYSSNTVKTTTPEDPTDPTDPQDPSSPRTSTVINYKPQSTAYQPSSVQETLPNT

B1: mouse J chain expressed in tobacco (other)
chain: GDDEATILADNKCMCTRVTSKIIPSTEDPNEDIVERNIRIVVPLNNRENISDPTSPLRRNFVYHLSDVCKKCDPVEVELEDQVVTATQSNICNEDDGVPETCYMYDRNKCYTTMVPLRYHGETKMVQAALTPDSCYPD
notes: also called joining chain
B2: rabbit secretory component (SC) construct expressed in tobacco (receptor)
chain: QSSLLGPSSIFGPGEVNVLEGDSVSITCYYPTTSVTRHSRKFWCREEESGRCVTLASTGYTSQEYSGRGKLTDFPDKGEFVVTVDQLTQNDSGSYKCGVGVNGRGLDFGVNVLVSQKPEPDDVVYKQYESYTVTITCPFTYATRQLKKSFYKVEDGELVLIIDSSSKEAKDPRYKGRITLQIQSTTAKEFTVTIKHLQLNDAGQYVCQSGSDPTAEEQNVDLRLLTPGLLYGNLGGSVTFECALDSEDANAVASLRQVRGGNVVIDSQGTIDPAFEGRILFTKAENGHFSVVIAGLRKEDTGNYLCGVQSNGQSGDGPTQLRQLFVNEEIDVSRSPPVLKGFPGGSVTIRCPYNPKRSDSHLQLYLWEGSQTRHLLVDSGEGLVQKDYTGRLALFEEPGNGTFSVVLNQLTAEDEGFYWCVSDDDESLTTSVKLQIVDGEPSPTIDKFTAVQGEPVEITCHFPCKYFSSEKYWCKWNDHGCEDLPTKLSSSGDLVKCNNNLVLTLTLDSVSEDDEGWYWCGAKDGHEFEEVAAVRVELTEPAKVAVEPAKVPVDPAKAAPAPAEEKAKARCPVPRRRQWYPLSRKLRTSCPEPRLLAEEVAVQSAE
notes: also called rabbit SC

Legend:
[1] = molecular target: T1, purified 185 kD streptococcal antigen …; test: ELISA of plant leaf extract on purified SA I/II coated plates
[2] = molecular target: dIgA-G, plant-expressed dimeric IgA-G with mouse J chain (murine; mouse) (UniProt P01878); test: initial estimate in extracts of SIgA-G plants (data not shown)
dIgA-G, plant-expressed dimeric IgA-G with mouse J chain (murine; mouse), sequence (P01878 116-344, form in doubt): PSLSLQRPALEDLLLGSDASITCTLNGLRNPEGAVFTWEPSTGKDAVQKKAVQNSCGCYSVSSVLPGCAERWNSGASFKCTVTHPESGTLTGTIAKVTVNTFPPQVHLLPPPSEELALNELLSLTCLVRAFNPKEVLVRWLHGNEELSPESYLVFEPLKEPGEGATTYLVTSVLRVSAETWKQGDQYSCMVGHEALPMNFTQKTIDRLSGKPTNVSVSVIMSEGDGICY

Binder	binding result [1]	percent of SC associated with dimeric IgA-G [2] [%]
B1	no binding	–
B2	no binding	50
